Source: publication PMC4749184, “Viral Replication Protein Inhibits Cellular Cofilin Actin Depolymerization Factor to Regulate the Actin Network and Promote Viral Replicase Assembly” (PLoS Pathogens, 2016)

T1: FLAG-tagged p33 replication protein (Tomato bushy stunt virus, UniProt P15962 1-296)
T1 construct: p33 replication protein of Tomato bushy stunt virus (tombusvirus); also called FLAG-p33; source: yeast (BY4741, cof1 ts and act1 ts strains), CUP1 promoter, in detergent-solubilized membrane fraction
T1 sequence: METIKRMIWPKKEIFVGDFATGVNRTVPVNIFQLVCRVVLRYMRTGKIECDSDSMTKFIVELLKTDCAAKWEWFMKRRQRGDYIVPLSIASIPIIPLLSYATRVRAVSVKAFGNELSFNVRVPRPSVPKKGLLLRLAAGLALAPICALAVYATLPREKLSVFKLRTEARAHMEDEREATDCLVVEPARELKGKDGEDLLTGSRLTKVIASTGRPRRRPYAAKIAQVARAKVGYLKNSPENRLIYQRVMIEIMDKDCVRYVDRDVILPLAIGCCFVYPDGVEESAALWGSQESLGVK

B1: Tef1 eEF1A (Tef1p) (natural protein, yeast (S. cerevisiae), UniProt P02994 1-458, looked up)
chain: MGKEKSHINVVVIGHVDSGKSTTTGHLIYKCGGIDKRTIEKFEKEAAELGKGSFKYAWVLDKLKAERERGITIDIALWKFETPKYQVTVIDAPGHRDFIKNMITGTSQADCAILIIAGGVGEFEAGISKDGQTREHALLAFTLGVRQLIVAVNKMDSVKWDESRFQEIVKETSNFIKKVGYNPKTVPFVPISGWNGDNMIEATTNAPWYKGWEKETKAGVVKGKTLLEAIDAIEQPSRPTDKPLRLPLQDVYKIGGIGTVPVGRVETGVIKPGMVVTFAPAGVTTEVKSVEMHHEQLEQGVPGDNVGFNVKNVSVKEIRRGNVCGDAKNDPPKGCASFNATVIVLNHPGQISAGYSPVLDCHTAHIACRFDELLEKNDRRSGKKLEDHPKFLKSGDAALVKFVPSKPMCVEAFSEYPPLGRFAVRDMRQTVAVGVIKSVDKTEKAAKVTKAAQKAAKK
notes: Tef1p, eukaryotic elongation factor 1A, cellular host factor in yeast; source: yeast (act1-132 ts and WT), co-purified with p33
B2: Rpn11 deubiquitinase (enzyme, yeast (S. cerevisiae), UniProt P43588 1-306, looked up)
chain: MERLQRLMMNSKVGSADTGRDDTKETVYISSIALLKMLKHGRAGVPMEVMGLMLGEFVDDYTVNVVDVFAMPQSGTGVSVEAVDDVFQAKMMDMLKQTGRDQMVVGWYHSHPGFGCWLSSVDVNTQKSFEQLNSRAVAVVVDPIQSVKGKVVIDAFRLIDTGALINNLEPRQTTSNTGLLNKANIQALIHGLNRHYYSLNIDYHKTAKETKMLMNLHKEQWQSGLKMYDYEEKEESNLAATKSMVKIAEQYSKRIEEEKELTEEELKTRYVGRQDPKKHLSETADETLENNIVSVLTAGVNSVAIK
notes: Rpn11 deubiquitinase, cellular host factor in yeast; source: yeast (act1-132 ts and WT), co-purified with p33
B3: Pbp2 RNA binding protein (natural protein, yeast (S. cerevisiae), UniProt P38151 1-413, looked up)
chain: MSTETTKPSITTTPTTVLVSPNTLKRKKGEDTSEEQLEAEIKRVALKDADSHSDNDHDSPDNVPSDVHLRMLCLVKHASLIVGHKGATISRIKSETSARINISNNIRGVPERIVYVRGTCDDVAKAYGMIVRALLEEHGNEDNGEDIEISINLLIPHHLMGCIIGKRGSRLREIEDLSAAKLFASPNQLLLSNDRILTINGVPDAIHIATFYISQTLLNFQMESPQKNVKRSIYYQPTQFNSVLIDHSQPNTIFHQRNHQYHPSDKLLSYKPNKNLPISSTLLSMATPQYTTASVANATAFQPNFVIPNVTVLDGPVISPAPGNHLLMNFVQQEIFIDEKFVGNVIGKDGKHINSVKESTGCSIIIQDPVEGSSERRLTIRGTFMASQAAIMLISNKIEIDRSNAERKRRSPL
notes: source: yeast (act1-132 ts and WT), co-purified with p33
B4: His6-tagged Osh6 protein (yeast Osh6p ORP) (natural protein, yeast (S. cerevisiae), UniProt Q02201 1-448, looked up)
chain: MGSKKLTVGSDSHRLSKSSFSSNKSSHSATKDQPIDTDDIDEDDESGHNIILNIISQLRPGCDLTRITLPTFILEKKSMLERVTNQLQFPEFLLQAHSEKDPLKRFLYVMKWYLAGWHIAPKAVKKPLNPVLGEYFTAYWDLPNKQQAYYISEQTSHHPPECAYFYMIPESSIRVDGVVIPKSRFLGNSSAAMMDGSTVLQFLDIKDGNGKPEKYVLTQPNVYVRGILFGKMRIELGDHMIIKSPNFQADIEFKTKGYVFGTYDAIEGTVKDYDGNAYYEISGKWNDVMYLKDLKQPRSSPKVFLDTHKESPLRPKVRPLSEQGEYESRKLWKKVTDALAVRNHPVATEEKFQIEDHQRQLAKKRIEDGVEFHPKLFRRSKPGEDLDYCIYKNIPVDEDPEKQIRSILQIAPILPGQQFTDKFFIPAFEKIKSQKKMIENEKQNPAKQ
notes: also called Osh6 ORP; 6xHis-Osh6p; source: yeast, GAL1 promoter (UpYC-NT-Gal1-OSH6), in detergent-solubilized membrane fraction
B5: Tdh2 GAPDH (Tdh2p) (enzyme, yeast (S. cerevisiae), UniProt P00358 1-332, looked up)
chain: MVRVAINGFGRIGRLVMRIALQRKNVEVVALNDPFISNDYSAYMFKYDSTHGRYAGEVSHDDKHIIVDGHKIATFQERDPANLPWASLNIDIAIDSTGVFKELDTAQKHIDAGAKKVVITAPSSTAPMFVMGVNEEKYTSDLKIVSNASCTTNCLAPLAKVINDAFGIEEGLMTTVHSMTATQKTVDGPSHKDWRGGRTASGNIIPSSTGAAKAVGKVLPELQGKLTGMAFRVPTVDVSVVDLTVKLNKETTYDEIKKVVKAAAEGKLKGVLGYTEDAVVSSDFLGDSNSSIFDAAAGIQLSPKFVKLVSWYDNEYGYSTRVVDLVEHVAKA
notes: Tdh2p, glyceraldehyde-3-phosphate dehydrogenase, cellular host factor in yeast; source: yeast (act1-132 ts and WT), co-purified with p33
B6: Vps23 ESCRT I (Vps23p ESCRT factor) (natural protein, yeast (S. cerevisiae), UniProt P25604 1-385, looked up)
chain: MSANGKISVPEAVVNWLFKVIQPIYNDGRTTFHDSLALLDNFHSLRPRTRVFTHSDGTPQLLLSIYGTISTGEDGSSPHSIPVIMWVPSMYPVKPPFISINLENFDMNTISSSLPIQEYIDSNGWIALPILHCWDPAAMNLIMVVQELMSLLHEPPQDQAPSLPPKPNTQLQQEQNTPPLPPKPKSPHLKPPLPPPPPPQPASNALDLMDMDNTDISPTNHHEMLQNLQTVVNELYREDVDYVADKILTRQTVMQESIARFHEIIAIDKNHLRAVEQAIEQTMHSLNAQIDVLTANRAKVQQFSSTSHVDDEDVNSIAVAKTDGLNQLYNLVAQDYALTDTIECLSRMLHRGTIPLDTFVKQGRELARQQFLVRWHIQRITSPLS
notes: Vps23p, ESCRT-I factor, cellular host factor in yeast; source: yeast (act1-132 ts and WT), co-purified with p33
B7: Cdc34 E2 enzyme (ubiquitin-conjugating enzyme) (enzyme, yeast (S. cerevisiae), UniProt P14682 1-295, looked up)
chain: MSSRKSTASSLLLRQYRELTDPKKAIPSFHIELEDDSNIFTWNIGVMVLNEDSIYHGGFFKAQMRFPEDFPFSPPQFRFTPAIYHPNVYRDGRLCISILHQSGDPMTDEPDAETWSPVQTVESVLISIVSLLEDPNINSPANVDAAVDYRKNPEQYKQRVKMEVERSKQDIPKGFIMPTSESAYISQSKLDEPESNKDMADNFWYDSDLDDDENGSVILQDDDYDDGNNHIPFEDDDVYNYNDNDDDDERIEFEDDDDDDDDSIDNDSVMDRKQPHKAEDESEDVEDVERVSKKI
notes: Cdc34 ubiquitin-conjugating enzyme, cellular host factor in yeast; source: yeast (act1-132 ts and WT), co-purified with p33
B8: Vps4 AAA ATPase (Vps4p) (enzyme, yeast (S. cerevisiae), UniProt P52917 1-437, looked up)
chain: MSTGDFLTKGIELVQKAIDLDTATQYEEAYTAYYNGLDYLMLALKYEKNPKSKDLIRAKFTEYLNRAEQLKKHLESEEANAAKKSPSAGSGSNGGNKKISQEEGEDNGGEDNKKLRGALSSAILSEKPNVKWEDVAGLEGAKEALKEAVILPVKFPHLFKGNRKPTSGILLYGPPGTGKSYLAKAVATEANSTFFSVSSSDLVSKWMGESEKLVKQLFAMARENKPSIIFIDEVDALTGTRGEGESEASRRIKTELLVQMNGVGNDSQGVLVLGATNIPWQLDSAIRRRFERRIYIPLPDLAARTTMFEINVGDTPCVLTKEDYRTLGAMTEGYSGSDIAVVVKDALMQPIRKIQSATHFKDVSTEDDETRKLTPCSPGDDGAIEMSWTDIEADELKEPDLTIKDFLKAIKSTRPTVNEDDLLKQEQFTRDFGQEGN
notes: Vps4p AAA ATPase, cellular host factor in yeast; source: yeast (act1-132 ts and WT), co-purified with p33
B9: 6xHis-Vap27-1 (VAP protein, Scs2-like plant ortholog) (natural protein, UniProt Q8VZ95 1-256, looked up)
chain: MSNIDLIGMSNRDLIGMSNSELLTVEPLDLQFPFELKKQISCSLYLTNKTDNNVAFKVKTTNPKKYCVRPNTGVVLPRSTCEVLVTMQAQKEAPSDMQCKDKFLLQGVIASPGVTAKEVTPEMFSKEAGHRVEETKLRVTYVAPPRPPSPVHEGSEEGSSPRASVSDNGHGSEFSFERFIVDNKAGHQENTSEARALITKLTEEKQSAIQLNNRLQRELDQLRRESKKSQSGGIPFMYVLLVGLIGLILGYIMKRT
notes: Vap27-1, VAMP-associated protein, a plant ortholog of yeast Scs2p; also called Vap27-1 (Scs2-like); ER-localized Vap27-1; source: expressed in yeast, in detergent-solubilized membrane fraction

Each binder was assayed against T1, FLAG-tagged p33 replication protein (assay: co-IP; FLAG-affinity column purification of FLAG-p33 (co-expressed with FLAG-p92) from detergent-solubilized membrane fraction of yeast after cross-linking with 1% formaldehyde for 1 h on ice; co-purified His6-tagged host proteins detected by Western blot with anti-His antibody; yeast expressing His6-p33 as control; WT (BY4741), cof1-8 ts, cof1-22 ts, act1-121 ts, act1-132 ts, act1-105 ts and act1-112 ts yeasts at …). Settings: partners not purified.

Going from B1 to B2, the “co-purified with p33 from act1-132 yeast, percent of co-purification from WT yeast” value rises from 96% to 161%.

Going from B3 to B4, the “co-purified with p33 from act1-132 yeast, percent of co-purification from WT yeast” value rises from 85% to 258%.

Going from B5 to B6, the “co-purified with p33 from act1-132 yeast, percent of co-purification from WT yeast” value falls from 111% to 108%.

Going from B7 to B8, the “co-purified with p33 from act1-132 yeast, percent of co-purification from WT yeast” value falls from 207% to 53%.

For B9, the “co-purified with p33 from act1-132 yeast, percent of co-purification from WT yeast” value was 218%.
